This assay has as its target ϕC31 integrase^S12A-RDF fusion protein (Streptomyces phage ϕC31) (UniProt Q9T221). Description: SEC-MALS. For orientation: SEC sorts molecules by how far they enter the pores of the column.

Consider “ϕC31 integrase^S12A-RDF fusion protein (from UniProt Q9T221 1-605)”, for which the stoichiometry N – broadly, the number of molecules, sites or subunits per partner or assembly – is 4.

Values taken from article doi:10.1101/2025.05.02.651858.
